Measurements published in patent publication US9890400B2, “Method of production of 2,4-dihydroxybutyric acid” (ADISSEO FRANCE S.A.S., priority 2012, dated 2018).
Where a chain is given by its changes, count along the chain named. In names and notes the source's numbering stands.

B1: YPR1: methylbutyraldehyde reductase from Saccharomyces cerevisiae, SEQ ID No. 14 (protein, listed as Saccharomyces cerevisiae)
chain: MPATLKNSSATLKLNTGASIPVLGFGTWRSVDNNGYHSVIAALKAGYRHIDAAAIYLNEEEVGRAIKDSGVPREEIFITTKLWGTEQRDPEAALNKSLKRLGLDYVDLYLMHWPVPLKTDRVTDGNVLCIPTLEDGTVDIDTKEWNFIKTWELMQELPKTGKTKAVGVSNFSINNIKELLESPNNKVVPATNQIEIHPLLPQDELIAFCKEKGIVVEAYSPFGSANAPLLKEQAIIDMAKKHGVEPAQLIISWSIQRGYVVLAKSVNPERIVSNFKIFTLPEDDFKTISNLSKVHGTKRVVDMKWGSFPIFQ
B2: YqhD: alcohol dehydrogenase of E. coli, SEQ ID No. 185 (protein, listed as Escherichia coli)
chain: MNNFNLHTPTRILFGKGAIAGLREQIPHDARVLITYGGGSVKKTGVLDQVLDALKGMDVLEFGGIEPNPAYETLMNAVKLVREQKVTFLLAVGGGSVLDGTKFIAAAANYPENIDPWHILQTGGKEIKSAIPMGCVLTLPATGSESNAGAVISRKTTGDKQAFHSAHVQPVFAVLDPVYTYTLPPRQVANGVVDAFVHTVEQYVTKPVDAKIQDRFAEGILLTLIEDGPKALKEPENYDVRANVMWAATQALNGLIGAGVPQDWATHMLGHELTAMHGLDHAQTLAIVLPALWNEKRDTKRAKLLQYAERVWNITEGSDDERIDAAIAATRNFFEQLGVPTHLSDYGLDGSSIPALLKKLEEHGMTQLGENHDITLDVSRRIYEAAR
B3: H39R N43H: M. sedula succinic semialdehyde reductase double mutant H39R N43H, SEQ ID No. 36 (protein, listed as Metallosphaera sedula)
chain: MKAAVLHTYKEPLSIEDVNISQPKAGEVKIKVKATGLCRSDVHVFEGKTPVPPPVVAGHEISGIVEEVGPGVTRVKPGDRVISAFIHPCGKCGNCVAGKENLCETFSQVRLKGVMPDGTSRLSKDGKEIRTFLGGGFAEYAIVGENALTRVPEDMDLEKVAVLGCAGLTGYGAISSSKIEPGDTVAVIGVGGVGLSTIQLLRASGAGRIIAVGTKKWKLDRAMELGATDVVNSKEIDPVKAIKEITGGGPQVVIEAGGNEDTIHMALDSVRIGGKVVLVGLPPATAMIPIRVASIVRGGIEVVGNYGGRPRVDMPKLLELVRQGRYDPSRLVTGRFRLEEINEAVKMLEEGEAIRSLIIP
B4: Ms-SSR: succinic semialdehyde reductase from Metallosphaera sedula, SEQ ID No. 16 (protein, listed as Metallosphaera sedula)
chain: B3 chain with R39H, H43N
B5: 4hbdh: 4-hydroxybutyrate dehydrogenase of P. gingivalis, SEQ ID No. 187 (protein, listed as Porphyromonas gingivalis)
chain: MQLFKLKSVTHHFDTFAEFAKEFCLGERDLVITNEFIYEPYMKACQLPCHFVMQEKYGQGEPSDEMMNNILADIRNIQFDRVIGIGGGTVIDISKLFVLKGLNDVLDAFDRKIPLIKEKELIIVPTTCGTGSEVTNISIAEIKSRHTKMGLADDAIVADHAIIIPELLKSLPFHFYACSAIDALIHAIESYVSPKASPYSRLFSEAAWDIILEVFKKIAEHGPEYRFEKLGEMIMASNYAGIAFGNAGVGAVHALSYPLGGNYHVPHGEANYQFFTEVFKVYQKKNPFGYIVELNWKLSKILNCQPEYVYPKLDELLGCLLTKKPLHEYGMKDEEVRGFAESVLKTQQRLLANNYVELTVDEIEGIYRRLY

Assay: Test for malate semialdehyde reductase (DHB dehydrogenase) activity
Type: biochemical
Details: for Activity on malate semialdehyde (cofactor NADPH) / Activity on malate semialdehyde (cofactor NADH): 10 mM malate semialdehyde, 30° C., average of at least two experiments
Protocol: Test for Malate Semialdehyde Reductase Activity: (L)-Malate semialdehyde+NAD(P)H→(L)-2,4-dihydroxybutyric acid+NAD(P) Reaction scheme:
The assay mixture contained 200 mM Hepes (pH 7.5), 50 mM KCl, 5 mM MgCl2, 0.24 mM NADH or NADPH, and appropriate amounts of purified enzyme or cell extract. Reactions were started by adding 10 mM (L)-malate semialdehyde (malate semialdehyde was prepared freshly for each test, see Example 3). Enzymatic assays were carried out at 30° C. in 96-well flat bottomed microtiter plates in a final volume of 250 μL. The reactions were followed by the characteristic absorption of NAD(P)H at 340 nm (εNADPH=6.22 mM^−1 cm^−1) in a microplate reader (BioRad 680XR).

| Molecule | Activity on malate semialdehyde (cofactor NADPH) | affinity for malate semialdehyde compared to the wild type enzyme (in words) | Activity on malate semialdehyde (cofactor NADH) |
| --- | --- | --- | --- |
| B1 | 0.19 μmol/(min * mg_prot) |  |  |
| B2 | 1.2 μmol/(min * mg_prot) |  |  |
| B3 |  | improved affinity |  |
| B4 | 4.9 μmol/(min * mg_prot) |  | 4.9 μmol/(min * mg_prot) |
| B5 |  |  | 33 μmol/(min * mg_prot) |
